This is an account of results in patent publication US20120231011A1 (APEXIGEN, published 2012).

As usually defined, the Kd is the constant that tells how readily two partners part at equilibrium. For orientation: IC50 means the concentration at which inhibition is half-maximal. Broadly, the EC50 (read off the curve) is the midpoint of the concentration-response curve.

Assay [1] has as its target T1, IgG Fc-hVEGF-A (Human VEGF 165) fusion protein (rabbit; human, UniProt P15692-4 27-191).
T1 construct: Expressed in HEK 293-6E cells and purified on Protein A; not shown: rabbit IgG Fc
In words: competitive ELISA: antibody mixed with IgG Fc-hVEGF, added to plate-bound IgG Fc-VEGFR2 (KDR); bound VEGF detected (OD405) [FIG. 1]. On the technique in general: An ELISA detects its analyte on a solid surface through an enzyme-linked reagent.

Assay [2] addresses T2, human VEGF (human, UniProt P15692-4 27-191, limits assumed).
T2 construct: The background describes VEGF as a homodimer
The assay can be described thus: SPR, BIAcore-3000, human VEGF on CM5 chip. Background: Surface plasmon resonance follows binding to a sensor surface in real time, without labels.

For assay [3], the target named is T2, human VEGF. The assay can be described thus: SPR, BIAcore-3000, human VEGF on CM5 chip, experiment 1.
Assay [4] concerns the target T2, human VEGF. In words: SPR, BIAcore-3000, human VEGF on CM5 chip, experiment 2.
Assay [5] deals with T2, human VEGF. The assay can be described thus: SPR, BIAcore-3000, human VEGF on CM5 chip; reference AVASTIN.
Assay [6] addresses T2, human VEGF. The assay can be described thus: SPR, BIAcore-3000, human VEGF on CM5 chip, average of two experiments.
Assay [7] deals with T1, IgG Fc-hVEGF-A (Human VEGF 165) fusion …. The assay can be described thus: competitive ELISA: antibody premixed with IgG Fc-hVEGF, plate coated with IgG Fc-VEGFR2 (KDR).
Assay [8] shares this target. In words: direct binding ELISA on plate-bound IgG Fc-hVEGF, detection with donkey anti-human IgG-AP (OD405) [FIG. 4].

T2 sequence (P15692 other isoform, or with tags, fused parts or gaps limits assumed): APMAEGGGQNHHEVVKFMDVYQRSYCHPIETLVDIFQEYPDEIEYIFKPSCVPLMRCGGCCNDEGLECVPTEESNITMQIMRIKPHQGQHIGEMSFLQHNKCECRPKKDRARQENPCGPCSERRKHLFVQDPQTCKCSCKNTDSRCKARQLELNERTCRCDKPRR
T1 sequence (P15692 other isoform, or with tags, fused parts or gaps limits assumed): as above

B1: recombinant humanized antibody expressed by the HZD-V1 clone (antibody, V domains shown)
VH: QQLVESGGGLVKPGGSLRLSCAASGFSFSNNDVMCWVRQAPGKGLEWIGCIMTTDVVTEYANWAKSRFTVSKDSAKNSVYLQMNSLRAEDTAVYFCARDSVGSPLMSFDLWGPGTLVTVSS
VL: ALQMTQSPSSLSASVGDRVTINCQASQSVYGNNELSWYQQKPGKPPKLLIYRASTLASGVPSRFSGSGSGTDFTLTISSLQPEDVATYYCGGYKSYSNDGNGFGGGTKVEIK
notes: The pairing of VH-HZD1 with VK-HZD1 for clone HZD-V1 is inferred from the names; Variable domains were cloned onto human CH and human CK
For B1, in assay [1], the “IC50 (read off the curve)” value is roughly 0.9 µg/mL.

B2: recombinant humanized antibody expressed by the HZD-V2 clone (antibody, V domains shown)
VH: QQLVESGGGLVKPGGSLRLSCAASGFSFSNNDVMCWVRQAPGKGLEWIGCIMTTDVVTEYANWAKSRFTVSRDSAKNSVYLQMNSLRAEDTAVYFCARDSVGSPLMSFDLWGPGTLVTVSS
VL: ALQMTQSPSSLSASVGDRVTINCQASQSIYNNNELSWYQQKPGKPPKLLIYRASTLASGVPSRFSGSGSGTDFTLTISSLQPEDVATYYCGGYKSYSNDGNGFGGGTKVEIK
notes: The pairing of VH-HZD2 with VK-HZD2 for clone HZD-V2 is inferred from the names; Variable domains were cloned onto human CH and human CK
Regarding B2, the “IC50 (read off the curve)” value in assay [1] was roughly 0.9 µg/mL.

B3: EPI0030 antibody (humanized rabbit anti-VEGF monoclonal antibody expressed by the HZD-V6 clone) (antibody, human IgG1, kappa, V domains shown)
VH: EVQLVESGGGLVKPGGSLRLSCAASGFSFSNNDVMCWVRQAPGKGLEWIGCIMTTDVVTEYANWAKSRFTVSRDSAKNSVYLQMNSLRAEDTAVYFCARDSVGSPLMSFDLWGPGTLVTVSS
VL: DIQMTQSPSSLSASVGDRVTINCQASQSIYNNNELSWYQQKPGKPPKLLIYRASTLASGVPSRFSGSGSGTDFTLTISSLQPEDVATYYCGGYKSYSNDGNGFGGGTKVEIKR
Take B3: the “ratio of Kd to that of AVASTIN” value with human VEGF [2] was 0.01; with human VEGF [5], 0.01 fold (Kd of EPI0030 / Kd of AVASTIN). The Kd with human VEGF [3] turned out to be 331 pM; with human VEGF [4], 638 pM; in the assay with human VEGF [6], 485 pM. This molecule also had an IC50 in assay [7] of 0.166 µg/mL. For the same molecule, the “EC50 (read off the curve)” value in assay [8] was roughly 0.01 µg/mL. Moreover, in assay [1], the “IC50 (read off the curve)” value was roughly 0.9 µg/mL.

B4: recombinant humanized antibody expressed by the HZD-V5 clone (antibody, V domains shown)
VH: EVQLVESGGGLVKPGGSLRLSCAASGFSFSNNDVMCWVRQAPGKGLEWIGCIMTTDVVTEYANWAKSRFTVSKDSAKNSVYLQMNSLRAEDTAVYFCARDSVGSPLMSFDLWGPGTLVTVSS
VL: DIQMTQSPSSLSASVGDRVTINCQASQSVYGNNELSWYQQKPGKPPKLLIYRASTLASGVPSRFSGSGSGTDFTLTISSLQPEDVATYYCGGYKSYSNDGNGFGGGTKVEIK
notes: The pairing of VH-HZD5 with VK-HZD5 for clone HZD-V5 is inferred from the names; Variable domains were cloned onto human CH and human CK
With B4, the “IC50 (read off the curve)” value in assay [1] is roughly 0.9 µg/mL.
